According to patent US20180016327A1 (Chugai, published 2018):
Where a chain is given by its changes, count along the chain named.

B1: CFP0021 21L 50E (antibody, V domains shown)
VH: QVQLVESGGGLVQPGGSLRLSCAASGFTFSDHYMDWVRQAPGKGLEWVGRTRNKANSYTTEYAASVKGRFTISRDDSKNSLYLQMNSLKTEDTAVYYCARTGMMYWGIFDVWGQGTLVTVSS
VL: DIQMTQSPSSLSASVGDRVTITCRASQSIEDDLAWYQQKPGKAPKLLIYEASTLQSGVPSRFSGSGSGTDFTLTISSLQPEDFATYYCQQHDSYPLTFGQGTKVEIK
B2: CFP0017 17L 96Y (antibody, V domains shown)
VH: QVQLVQSGAEVKKPGSSVKVSCKASGGTFSSYAISWVRQAPGQGLEWMGGIIPIFGTANYAQKFQGRVTITADESTSTAYMELSSLRSEDTAVYYCARGGWWGGALDYWGQGTLVTVSS
VL: B1 VL with E50H, T53S, H91S, L96Y
B3: CFP0017 17L 53T (antibody, V domains shown)
VH: B2 VH
VL: B1 VL with E50H, H91S
B4: CFP0017 17L 31A (antibody, V domains shown)
VH: B2 VH
VL: B1 VL with D31A, E50H, T53S, H91S
B5: CFP0017 17L 93D (antibody, V domains shown)
VH: B2 VH
VL: B1 VL with E50H, T53S, H91S, S93D
B6: CFP0019 (antibody, V domains shown)
VH: QVQLQESGPGLVKPSETLSLTCAVSGYSISSGYYWGWIRQPPGKGLEWIGSIYHSGSTYYNPSLKSRVTISVDTSKNQFSLKLSSVTAADTAVYYCARYYVWLGGPTYMDYWGQGTLVTVSS
VL: B1 VL with E50H, H91S, S93G
notes: IgG format
B7: CFP0017 17L 53N (antibody, V domains shown)
VH: B2 VH
VL: B1 VL with E50H, T53N, H91S
B8: CFP0017 17L 53H (antibody, V domains shown)
VH: B2 VH
VL: B1 VL with E50H, T53H, H91S
B9: CFP0017 17L 93G (antibody, V domains shown)
VH: B2 VH
VL: B1 VL with E50H, T53S, H91S, S93G
B10: CFP0017 17L 94S (antibody, V domains shown)
VH: B2 VH
VL: B1 VL with E50H, T53S, H91S, Y94S
B11: CFP0017 17L 93N (antibody, V domains shown)
VH: B2 VH
VL: B1 VL with E50H, T53S, H91S, S93N
B12: CFP0017 17L 94T (antibody, V domains shown)
VH: B2 VH
VL: B1 VL with E50H, T53S, H91S, Y94T
B13: CFP0017 17L 34N (antibody, V domains shown)
VH: B2 VH
VL: B1 VL with A34N, E50H, T53S, H91S
B14: CFP0017 17L 93R (antibody, V domains shown)
VH: B2 VH
VL: B1 VL with E50H, T53S, H91S, S93R
B15: CFP0021 21L 94F (antibody, V domains shown)
VH: B1 VH
VL: B1 VL with E50H, Y94F
B16: CFP0021 21L 94S (antibody, V domains shown)
VH: B1 VH
VL: B1 VL with E50H, Y94S
B17: CFP0021 21L 96F (antibody, V domains shown)
VH: B1 VH
VL: B1 VL with E50H, L96F
B18: CFP0021 21L 94H (antibody, V domains shown)
VH: B1 VH
VL: B1 VL with E50H, Y94H
B19: CFP0021 21L 93G (antibody, V domains shown)
VH: B1 VH
VL: B1 VL with E50H, S93G
B20: CFP0021 21L 91S (antibody, V domains shown)
VH: B1 VH
VL: B1 VL with E50H, H91S
B21: CFP0021 21L 94T (antibody, V domains shown)
VH: B1 VH
VL: B1 VL with E50H, Y94T
B22: CFP0021 21L 53H (antibody, V domains shown)
VH: B1 VH
VL: B1 VL with E50H, T53H
B23: CFP0021 21L 50Q (antibody, V domains shown)
VH: B1 VH
VL: B1 VL with E50Q
B24: CFP0021 21L 96H (antibody, V domains shown)
VH: B1 VH
VL: B1 VL with E50H, L96H
B25: CFP0021 21L 96I (antibody, V domains shown)
VH: B1 VH
VL: B1 VL with E50H, L96I
B26: CFP0021 21L 53N (antibody, V domains shown)
VH: B1 VH
VL: B1 VL with E50H, T53N
B27: CFP0021 21L 96W (antibody, V domains shown)
VH: B1 VH
VL: B1 VL with E50H, L96W
B28: CFP0021 21L 96Y (antibody, V domains shown)
VH: B1 VH
VL: B1 VL with E50H, L96Y
B29: CFP0021 21L 50S (antibody, V domains shown)
VH: B1 VH
VL: B1 VL with E50S
B30: CFP0021 21L 91Y (antibody, V domains shown)
VH: B1 VH
VL: B1 VL with E50H, H91Y
B31: CFP0021 21L 91R (antibody, V domains shown)
VH: B1 VH
VL: B1 VL with E50H, H91R
B32: CFP0021 21L 93D (antibody, V domains shown)
VH: B1 VH
VL: B1 VL with E50H, S93D
B33: CFP0021 21L 53S (antibody, V domains shown)
VH: B1 VH
VL: B1 VL with E50H, T53S
B34: CFP0021 21L 92N (antibody, V domains shown)
VH: B1 VH
VL: B1 VL with E50H, D92N
B35: CFP0021 21L 94W (antibody, V domains shown)
VH: B1 VH
VL: B1 VL with E50H, Y94W
B36: CFP0021 21L 92S (antibody, V domains shown)
VH: B1 VH
VL: B1 VL with E50H, D92S
B37: CFP0021 21L 50Y (antibody, V domains shown)
VH: B1 VH
VL: B1 VL with E50Y
B38: CFP0021 21L 93R (antibody, V domains shown)
VH: B1 VH
VL: B1 VL with E50H, S93R
B39: CFP0021 21L 50T (antibody, V domains shown)
VH: B1 VH
VL: B1 VL with E50T
B40: CFP0021 21L 93N (antibody, V domains shown)
VH: B1 VH
VL: B1 VL with E50H, S93N
B41: CFP0021 21L 96P (antibody, V domains shown)
VH: B1 VH
VL: B1 VL with E50H, L96P

Molecular target: T1, human C5 (human, UniProt P01031 19-673; P01031 678-1676, Beta and alpha chains are disulfide-linked and the protein is glycosylated.)
T1 construct: Either in-house recombinant C5 or plasma derived C5 (CALBIOCHEM) was used; also called recombinant human C5; plasma derived human C5
Experiment: Biacore, captured antibody, pH 7.4, 37 C;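 also: biacore binding response of anti-C5 antibody light chain variants captured on chip with human C5 injected, ACES running buffer containing 1.2 mM CaCl₂, parent light chain antibody set to 100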

| Binder | % binding (parent = 100) [%] |
| --- | --- |
| B1 | 44 |
| B2 | -11.1 |
| B3 | 109 |
| B4 | 0.6 |
| B5 | 22.9 |
| B6 | 100 |
| B7 | 52.9 |
| B8 | 69.6 |
| B9 | 51 |
| B10 | -8.4 |
| B11 | 63 |
| B12 | 4.3 |
| B13 | -9.4 |
| B14 | 84.9 |
| B15 | 0.9 |
| B16 | 0.3 |
| B17 | 39.9 |
| B18 | 2.6 |
| B19 | 37.9 |
| B20 | 17.8 |
| B21 | 1.3 |

| Binder | % binding (parent = 100) [%] |
| --- | --- |
| B22 | 75.7 |
| B23 | 61.1 |
| B24 | -0.7 |
| B25 | 19.7 |
| B26 | 97.6 |
| B27 | 0.8 |
| B28 | 1.4 |
| B29 | 40.6 |
| B30 | 79.5 |
| B31 | 1.5 |
| B32 | 22.2 |
| B33 | 73.2 |
| B34 | 4.7 |
| B35 | 1.3 |
| B36 | 4.8 |
| B37 | 74.9 |
| B38 | 5.2 |
| B39 | 38.8 |
| B40 | 28.5 |
| B41 | 4.3 |
